Patent US20150344540A1, “NOVEL GLP-1 RECEPTOR AGONISTS WITH CHOLESTEROL EFFLUX ACTIVITY” (NOVO NORDISK A/S, priority 2012, published 2015)
Where no end group is shown, it is not given here. [ ]: non-standard residue; d: D form. Aib = CC(C)(N)C(=O)O

B1: [Aib2,Glu21,Lys29,Aib30,Leu31,Glu32,Phe33,Leu34,Glu35,Leu36]-Exendin-4-(1-37)-peptide amide (peptide)
peptide: H[Aib]EGTFTSDLSKQMEEEAVREFIEWLKNK[Aib]LEFLELP-NH2
modifications: N-terminus assumed
SMILES: CC[C@H](C)[C@H](NC(=O)[C@H](Cc1ccccc1)NC(=O)[C@H](CCC(=O)O)NC(=O)[C@H](CCCNC(=N)N)NC(=O)[C@@H](NC(=O)[C@H](C)NC(=O)[C@H](CCC(=O)O)NC(=O)[C@H](CCC(=O)O)NC(=O)[C@H](CCC(=O)O)NC(=O)[C@H](CCSC)NC(=O)[C@H](CCC(N)=O)NC(=O)[C@H](CCCCN)NC(=O)[C@H](CO)NC(=O)[C@H](CC(C)C)NC(=O)[C@H](CC(=O)O)NC(=O)[C@H](CO)NC(=O)[C@@H](NC(=O)[C@H](Cc1ccccc1)NC(=O)[C@@H](NC(=O)CNC(=O)[C@H](CCC(=O)O)NC(=O)C(C)(C)NC(=O)[C@@H](N)Cc1c[nH]cn1)[C@@H](C)O)[C@@H](C)O)C(C)C)C(=O)N[C@@H](CCC(=O)O)C(=O)N[C@@H](Cc1c[nH]c2ccccc12)C(=O)N[C@@H](CC(C)C)C(=O)N[C@@H](CCCCN)C(=O)N[C@@H](CC(N)=O)C(=O)N[C@@H](CCCCN)C(=O)NC(C)(C)C(=O)N[C@@H](CC(C)C)C(=O)N[C@@H](CCC(=O)O)C(=O)N[C@@H](Cc1ccccc1)C(=O)N[C@@H](CC(C)C)C(=O)N[C@@H](CCC(=O)O)C(=O)N[C@@H](CC(C)C)C(=O)N1CCC[C@H]1C(N)=O
B2: [Aib2,Glu21,Lys29,Aib30,Leu31,Glu32,Phe33,Leu34,Glu35,Leu37]-Exendin-4-(1-37)-peptide amide (peptide)
peptide: H[Aib]EGTFTSDLSKQMEEEAVREFIEWLKNK[Aib]LEFLEPL-NH2
modifications: N-terminus assumed
SMILES: CC[C@H](C)[C@H](NC(=O)[C@H](Cc1ccccc1)NC(=O)[C@H](CCC(=O)O)NC(=O)[C@H](CCCNC(=N)N)NC(=O)[C@@H](NC(=O)[C@H](C)NC(=O)[C@H](CCC(=O)O)NC(=O)[C@H](CCC(=O)O)NC(=O)[C@H](CCC(=O)O)NC(=O)[C@H](CCSC)NC(=O)[C@H](CCC(N)=O)NC(=O)[C@H](CCCCN)NC(=O)[C@H](CO)NC(=O)[C@H](CC(C)C)NC(=O)[C@H](CC(=O)O)NC(=O)[C@H](CO)NC(=O)[C@@H](NC(=O)[C@H](Cc1ccccc1)NC(=O)[C@@H](NC(=O)CNC(=O)[C@H](CCC(=O)O)NC(=O)C(C)(C)NC(=O)[C@@H](N)Cc1c[nH]cn1)[C@@H](C)O)[C@@H](C)O)C(C)C)C(=O)N[C@@H](CCC(=O)O)C(=O)N[C@@H](Cc1c[nH]c2ccccc12)C(=O)N[C@@H](CC(C)C)C(=O)N[C@@H](CCCCN)C(=O)N[C@@H](CC(N)=O)C(=O)N[C@@H](CCCCN)C(=O)NC(C)(C)C(=O)N[C@@H](CC(C)C)C(=O)N[C@@H](CCC(=O)O)C(=O)N[C@@H](Cc1ccccc1)C(=O)N[C@@H](CC(C)C)C(=O)N[C@@H](CCC(=O)O)C(=O)N1CCC[C@H]1C(=O)N[C@@H](CC(C)C)C(N)=O
B3: [Asn14,Met16,Thr17,Asn18,Glu23,Val25,Glu34,Lys35,Aib36,Lys37]-GLP-1-(7-37)-peptidyl-Glu-Phe-Leu amide (peptide)
peptide: HAEGTFTNDMTNYLEGEAVKEFIAWLVEK[Aib]KEFL-NH2
modifications: N-terminus assumed
SMILES: CC[C@H](C)[C@H](NC(=O)[C@H](Cc1ccccc1)NC(=O)[C@H](CCC(=O)O)NC(=O)[C@H](CCCCN)NC(=O)[C@@H](NC(=O)[C@H](C)NC(=O)[C@H](CCC(=O)O)NC(=O)CNC(=O)[C@H](CCC(=O)O)NC(=O)[C@H](CC(C)C)NC(=O)[C@H](Cc1ccc(O)cc1)NC(=O)[C@H](CC(N)=O)NC(=O)[C@@H](NC(=O)[C@H](CCSC)NC(=O)[C@H](CC(=O)O)NC(=O)[C@H](CC(N)=O)NC(=O)[C@@H](NC(=O)[C@H](Cc1ccccc1)NC(=O)[C@@H](NC(=O)CNC(=O)[C@H](CCC(=O)O)NC(=O)[C@H](C)NC(=O)[C@@H](N)Cc1c[nH]cn1)[C@@H](C)O)[C@@H](C)O)[C@@H](C)O)C(C)C)C(=O)N[C@@H](C)C(=O)N[C@@H](Cc1c[nH]c2ccccc12)C(=O)N[C@@H](CC(C)C)C(=O)N[C@H](C(=O)N[C@@H](CCC(=O)O)C(=O)N[C@@H](CCCCN)C(=O)NC(C)(C)C(=O)N[C@@H](CCCCN)C(=O)N[C@@H](CCC(=O)O)C(=O)N[C@@H](Cc1ccccc1)C(=O)N[C@@H](CC(C)C)C(N)=O)C(C)C
B4: [Aib8,Glu34,Lys35,Aib36,Lys37]-GLP-1-(7-37)-peptidyl-Glu-Phe-Leu amide (peptide)
peptide: H[Aib]EGTFTSDVSSYLEGQAAKEFIAWLVEK[Aib]KEFL-NH2
modifications: N-terminus assumed
SMILES: CC[C@H](C)[C@H](NC(=O)[C@H](Cc1ccccc1)NC(=O)[C@H](CCC(=O)O)NC(=O)[C@H](CCCCN)NC(=O)[C@H](C)NC(=O)[C@H](C)NC(=O)[C@H](CCC(N)=O)NC(=O)CNC(=O)[C@H](CCC(=O)O)NC(=O)[C@H](CC(C)C)NC(=O)[C@H](Cc1ccc(O)cc1)NC(=O)[C@H](CO)NC(=O)[C@H](CO)NC(=O)[C@@H](NC(=O)[C@H](CC(=O)O)NC(=O)[C@H](CO)NC(=O)[C@@H](NC(=O)[C@H](Cc1ccccc1)NC(=O)[C@@H](NC(=O)CNC(=O)[C@H](CCC(=O)O)NC(=O)C(C)(C)NC(=O)[C@@H](N)Cc1c[nH]cn1)[C@@H](C)O)[C@@H](C)O)C(C)C)C(=O)N[C@@H](C)C(=O)N[C@@H](Cc1c[nH]c2ccccc12)C(=O)N[C@@H](CC(C)C)C(=O)N[C@H](C(=O)N[C@@H](CCC(=O)O)C(=O)N[C@@H](CCCCN)C(=O)NC(C)(C)C(=O)N[C@@H](CCCCN)C(=O)N[C@@H](CCC(=O)O)C(=O)N[C@@H](Cc1ccccc1)C(=O)N[C@@H](CC(C)C)C(N)=O)C(C)C
B5: [Aib2,Glu21,Lys29,Aib30,Leu31,Glu32,Phe33,Leu34,Leu36,Leu37]-Exendin-4-(1-37)-peptide amide (peptide)
peptide: H[Aib]EGTFTSDLSKQMEEEAVREFIEWLKNK[Aib]LEFLALL-NH2
modifications: N-terminus assumed
SMILES: CC[C@H](C)[C@H](NC(=O)[C@H](Cc1ccccc1)NC(=O)[C@H](CCC(=O)O)NC(=O)[C@H](CCCNC(=N)N)NC(=O)[C@@H](NC(=O)[C@H](C)NC(=O)[C@H](CCC(=O)O)NC(=O)[C@H](CCC(=O)O)NC(=O)[C@H](CCC(=O)O)NC(=O)[C@H](CCSC)NC(=O)[C@H](CCC(N)=O)NC(=O)[C@H](CCCCN)NC(=O)[C@H](CO)NC(=O)[C@H](CC(C)C)NC(=O)[C@H](CC(=O)O)NC(=O)[C@H](CO)NC(=O)[C@@H](NC(=O)[C@H](Cc1ccccc1)NC(=O)[C@@H](NC(=O)CNC(=O)[C@H](CCC(=O)O)NC(=O)C(C)(C)NC(=O)[C@@H](N)Cc1c[nH]cn1)[C@@H](C)O)[C@@H](C)O)C(C)C)C(=O)N[C@@H](CCC(=O)O)C(=O)N[C@@H](Cc1c[nH]c2ccccc12)C(=O)N[C@@H](CC(C)C)C(=O)N[C@@H](CCCCN)C(=O)N[C@@H](CC(N)=O)C(=O)N[C@@H](CCCCN)C(=O)NC(C)(C)C(=O)N[C@@H](CC(C)C)C(=O)N[C@@H](CCC(=O)O)C(=O)N[C@@H](Cc1ccccc1)C(=O)N[C@@H](CC(C)C)C(=O)N[C@@H](C)C(=O)N[C@@H](CC(C)C)C(=O)N[C@@H](CC(C)C)C(N)=O
B6: [Aib8,Glu23,Val25,Arg26,Glu34,Arg35,Aib36,Arg37]-GLP-1-(7-37)-peptidyl-Glu-Phe-Leu amide (peptide)
peptide: H[Aib]EGTFTSDVSSYLEGEAVREFIAWLVER[Aib]REFL-NH2
modifications: N-terminus assumed
SMILES: CC[C@H](C)[C@H](NC(=O)[C@H](Cc1ccccc1)NC(=O)[C@H](CCC(=O)O)NC(=O)[C@H](CCCNC(=N)N)NC(=O)[C@@H](NC(=O)[C@H](C)NC(=O)[C@H](CCC(=O)O)NC(=O)CNC(=O)[C@H](CCC(=O)O)NC(=O)[C@H](CC(C)C)NC(=O)[C@H](Cc1ccc(O)cc1)NC(=O)[C@H](CO)NC(=O)[C@H](CO)NC(=O)[C@@H](NC(=O)[C@H](CC(=O)O)NC(=O)[C@H](CO)NC(=O)[C@@H](NC(=O)[C@H](Cc1ccccc1)NC(=O)[C@@H](NC(=O)CNC(=O)[C@H](CCC(=O)O)NC(=O)C(C)(C)NC(=O)[C@@H](N)Cc1c[nH]cn1)[C@@H](C)O)[C@@H](C)O)C(C)C)C(C)C)C(=O)N[C@@H](C)C(=O)N[C@@H](Cc1c[nH]c2ccccc12)C(=O)N[C@@H](CC(C)C)C(=O)N[C@H](C(=O)N[C@@H](CCC(=O)O)C(=O)N[C@@H](CCCNC(=N)N)C(=O)NC(C)(C)C(=O)N[C@@H](CCCNC(=N)N)C(=O)N[C@@H](CCC(=O)O)C(=O)N[C@@H](Cc1ccccc1)C(=O)N[C@@H](CC(C)C)C(N)=O)C(C)C
B7: [Aib2,Glu21,Lys29,Aib30,Leu31,Glu32,Phe33,Glu35,Leu36,Leu37]-Exendin-4-(1-37)-peptide amide (peptide)
peptide: H[Aib]EGTFTSDLSKQMEEEAVREFIEWLKNK[Aib]LEFGELL-NH2
modifications: N-terminus assumed
SMILES: CC[C@H](C)[C@H](NC(=O)[C@H](Cc1ccccc1)NC(=O)[C@H](CCC(=O)O)NC(=O)[C@H](CCCNC(=N)N)NC(=O)[C@@H](NC(=O)[C@H](C)NC(=O)[C@H](CCC(=O)O)NC(=O)[C@H](CCC(=O)O)NC(=O)[C@H](CCC(=O)O)NC(=O)[C@H](CCSC)NC(=O)[C@H](CCC(N)=O)NC(=O)[C@H](CCCCN)NC(=O)[C@H](CO)NC(=O)[C@H](CC(C)C)NC(=O)[C@H](CC(=O)O)NC(=O)[C@H](CO)NC(=O)[C@@H](NC(=O)[C@H](Cc1ccccc1)NC(=O)[C@@H](NC(=O)CNC(=O)[C@H](CCC(=O)O)NC(=O)C(C)(C)NC(=O)[C@@H](N)Cc1c[nH]cn1)[C@@H](C)O)[C@@H](C)O)C(C)C)C(=O)N[C@@H](CCC(=O)O)C(=O)N[C@@H](Cc1c[nH]c2ccccc12)C(=O)N[C@@H](CC(C)C)C(=O)N[C@@H](CCCCN)C(=O)N[C@@H](CC(N)=O)C(=O)N[C@@H](CCCCN)C(=O)NC(C)(C)C(=O)N[C@@H](CC(C)C)C(=O)N[C@@H](CCC(=O)O)C(=O)N[C@@H](Cc1ccccc1)C(=O)NCC(=O)N[C@@H](CCC(=O)O)C(=O)N[C@@H](CC(C)C)C(=O)N[C@@H](CC(C)C)C(N)=O

Biological target: human GLP-1 receptor (human, UniProt P43220)
Assay: cell-based or functional assay

Binder | CRE luciferase EC50, 0% HSA [nM] | CRE luciferase EC50, 1% HSA [nM]
B1 | 0.023 | 0.01
B2 | 0.032 | 0.013
B3 | 0.186 | 0.077
B4 | 0.108 | 0.042
B5 | 0.754 | 0.388
B6 | 0.086 | 0.041
B7 | 0.026 | 0.012
